Assay results reported in paper PMC4506582, “Plasmodium falciparum coronin organizes arrays of parallel actin filaments potentially guiding directional motility in invasive malaria parasites” (Malaria Journal, 2015).

How the values were obtained:
[1] = biological target: the molecule itself; experiment: SEC; Superdex 200 10/300, 50 mM MES pH 7.0, 100 mM NaCl, 2 mM DTT, 1 mM EDTA; single peak at ~13 mL, ~160 kDa
[2] = biological target: rabbit skeletal muscle actin (filamentous, Mg-ATP-actin polymerised) (rabbit, UniProt P68135 1-377); experiment: co-sedimentation; settings: both partners purified

Binder | stoichiometry N [1] | Kd [2] [nM]
His-PfAldolase (Plasmodium falciparum fructose 1,6 bisphosphate aldolase) (enzyme, UniProt Q7KQL9 1-369, looked up, Detected by anti-His Western blot in the sedimentation assay; source: E. coli BL21 (DE3), purified (IMAC, cation exchange, SEC); not shown: His6, N-terminal, kept) MAHCTEYMNAPKKLPADVAEELATTAQKLVQAGKGILAADESTQTIKKRFDNIKLENTIENRASYRDLLFGTKGLGKFISGAILFEETLFQKNEAGVPMVNLLHNENIIPGIKVDKGLVNIPCTDEEKSTQGLDGLAERCKEYYKAGARFAKWRTVLVIDTAKGKPTDLSIHETAWGLARYASICQQNRLVPIVEPEILADGPHSIEVCAVVTQKVLSCVFKALQENGVLLEGALLKPNMVTAGYECTAKTTTQDVGFLTVRTLRRTVPPALPGVVFLSGGQSEEEASVNLNSINALGPHPWALTFSYGRALQASVLNTWQGKKENVAKAREVLLQRAEANSLATYGKYKGGAGGENAGASLYEKKYVY | ~4 | 
PfCoronin 1-388 (N-terminal beta-propeller domain of Plasmodium falciparum coronin) (domain or fragment) MYNVPLIKNLYPDPSNNLYGDLRICSRATETCGIACSAGYIAVPWQVEGGGMIGVIRLENQVRNPPVIKLKSHTSPILDLSFNPCYSEILASCSEDMSIRIWEIRHEDENVNEVKDPLCILNGHKKKVNILSWNPMNYFILSSTSFDSSVNIWDIENEKKAFEINMPKKLSSLQWDIGGNLLSGTCQNKQIHIIDPRKQEICNSFLIHDGGKSTKCIWIDGFGGEDKCILTTGFSKNNMRELKLWSLKNTTSPLTTITLDNAASPLLPHYDESVGMIYLIGKGDGNCRYYQYSQGSIRKVDEYKSCLPFRSFGFLPKRMCDVYKCEIGRVYKNENNTDIRPISFYVPRKNSSIFQEDLYPPIIMRDPERSTNKWIDGINLDIKRVSIK |  | 956
